Reference: patent US20090297524A1 (DOMANTIS, published 2009)

T1: Recombinant human CD40L (human, UniProt P29965 108-261, limits assumed)
T1 construct: also called CD40 ligand
T1 sequence (looked up): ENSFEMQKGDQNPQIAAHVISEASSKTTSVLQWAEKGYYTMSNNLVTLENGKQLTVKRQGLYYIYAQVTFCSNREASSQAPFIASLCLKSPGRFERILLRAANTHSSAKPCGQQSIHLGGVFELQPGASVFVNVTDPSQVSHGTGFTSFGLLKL

B1: DOM-54 (other)
VH: EVQLLESGGGLVQPGGSLRLSCAASGFTFTAYRMAWVRQAPGKGLEWVSWISPSGSGTYYADSVKGRFTISRDNSKNTLYLQMNSLRAEDTAVYYCAKTLTDSPSGHYEFDYWGQGTLVTVSS
notes: VH dAb
B2: DOM-12 (other)
VH: EVQLLESGGGLVQPGGSLRLSCAASGFTFRLYEMAWVRQAPGKGLEWVSGIDILGSRTYYADSVKGRFTISRDNSKNTLYLQMNSLRAEDTAVYYCAKDLSWQGFDYWGQGTLVTVSS
notes: VH dAb
B3: DOM-45 (other)
VH: EVQLLESGGGLVQPGGSLRLSCAASGFTFGNYAMAWVRQAPGKGLEWVSKIGAQGLHTYYAGSVKGRFTISRDNSKNTLYLQMNSLRAEDTAVYYCAKQTTMDYERFDYWGQGTLVTVSS
notes: VH dAb
B4: DOM.204 (other)
VH: EVQLLESGGGLVQPGGSLRLSCAASGFTFKRYSMAWVRQAPGKGLEWVSDIGPRGFSTYYADSVKGRFTISRDNSKNTLYLQMNSLRAEDTAVYYCAKVGRGQRDTSQPFDYWGQGTLVTVSS
notes: VH dAb
B5: DOM-55 (other)
VH: EVQLLESGGGLVQPGGSLRLSCAASGFTFARYEMGWVRQAPGKGLEWVSRITAQGLGTYYADSVKGRFTISRDNSKNTLYLQMNSLRAEDTAVYYCAKYLTDFSSGHQEFDYWGQGTLVTVSS
notes: VH dAb
B6: DOM-69 (other)
VH: EVQLLESGGGLVQPGGSLRLSCAASGFTFLDYGMAWVRQAPGKGLEWVSAISPLGLSTYYADSVKSRFTISRDNSKNTLYLQMNSLRAEDTAVYYCAKEVRVGRGVHPPKFDYWGQGTLVTVSS
notes: VH dAb
B7: DOM-51 (other)
VL: DIQMTQSPSSLSASVGDRVTITCRASQPIVDELDWYQQKPGKAPKLLIYAASILQSGVPSRFSGSGSGTDFTLTISSLQPEDFATYYCHQWSTYPTTFGQGTKVEIKR
notes: Vk dAb
B8: DOM.207 (other)
VH: EVQLLESGGGLVQPGGSLRLSCAASGFTFDKYLMSWVRQAPGKGLEWVSGIEPLGDVTYYADSVKGRFTISRDNSKNTLYLQMNSLRAEDTAVYYCAKEASGDFDYWGQGTLVTVSS
notes: VH dAb
B9: DOM-56 (other)
VH: EVQLLESGGGLVQPGGSLRLSCAASGFTFNDYTMGWVRQAPGKGLEWVSWIHGTGGQTYYADSVKGRFTISRDNSKNTLYLQMNSLRAEDTAVYYCAKALADRSGGVVEFDYWGQGTLVTVSS
notes: VH dAb
B10: DOM-21 (other)
VH: EVQLLESGGGLVQPGGSLRLSCAASGFTFANYEMGWARQAPGKGLEWVSVISEWGYSTYYADSAKGRFTISRDNSKNTLYLQMNSLRAEDTAVYYCAKLVGGTQYEFDYWGQGTLVTVSS
notes: VH dAb
B11: DOM-61 (other)
VH: EVQLLESGGGLVQPGGSLRLSCAASGFTFAAYAMTWVRQAPGKGLEWVSYISPNGTATYYADSVKGRFTISRDNSKNTLYLQMNSLRAEDTAVYYCAEYVGMRWNSFDYWGQGTLVTVSS
notes: VH dAb
B12: DOM-18 (other)
VH: EVQLLESGGGLVQPGGSLRLSCAASGFTFPEYDMTWVRQAPGKGLEWVSYISSDGYSTYYADSVKGRFTISRDNSKNTLYLQMNSLRAEDTAVYYCAKPHGSPREFDYWGQGTLVTVSS
notes: VH dAb
B13: DOM-33 (other)
VL: DIQMTQSPSSLSASVGDRVTITCRASQTIGESLHWYQQKPGKAPRLLIYFASLLQSGVPSRFSGSGSGTDFTLTISSLQPEDFATYYCQQHHMLPSTFGQGTKVEIKR
notes: Vk dAb
B14: DOM-34 (other)
VL: DIQMTQSPSSLSASVGDRVTITCRASQWIGDSLSWYQQKPGKAPKLLIYFASYLQSGVPTRFSGSGSGTDFTLTISSLQPEDFATYYCQQYFENPVTFGQGTKVGIKR
notes: Vk dAb
B15: DOM-50 (other)
VL: DIQMTQSPSSLSASVGDRVTITCRASQWIGDSLSWYQQKPGKAPKLLIYFGSYLQSGVPSRFSGSGSGTDFTLTISSLQPEDSATYYCQQYQYVPSTFGQGTKVEIKQ
notes: Vk dAb
B16: DOM-48 (other)
VL: DIQMTQSPSSLSASVGDRVTITCRASQWIGDSLSWYQQKPGKAPKLLIYFGSYLQNGVPSRFSGSGSGTDFTLTISSLQPEDFATYYCQQYMITPTTFGQGTKVEIKR
notes: Vk dAb
B17: DOM-59 (other)
VH: EVQLLESGGGLVQPGGSLRLSCAASGFTFLDYAMGWVRQAPGKGLEWVSTISPMGMGTYYADSVKGRFTISRDNSKNTLYLQMNSLRAEDTAVYYCAKSSAISFTSDISNFDYWGQGTLVTVSS
notes: VH dAb
B18: DOM-53 (other)
VL: DIQMTQSPSSLSASVGDRVTITCRASQAIYGGLRWYQQKPGKAPKLLIYGESMLQSGVPSRFSGSGSGTDFTLTISSLHPEDFATYYCQQVYHKPFTFGQGTKVEIKR
notes: Vk dAb
B19: DOM-16 (other)
VH: EVQLLESGGGLVQPGGSLRLSCAASGFTFMEYAMIWVRQAPGKGLEWVSIISPLGLSTYYADSVKGRFTISRDNSKNTLYLQMNSLRAEDTAVYYCAKYQDSSDSQYTNFDYWGQGTLVTVSS
notes: VH dAb
B20: DOM-39 (other)
VL: DIQMTQSPSSLSASVGDCVTITCRASQNIDGLLWWYQQKPGKAPKLLIYAGSGLQSGVPSRFSGSGSGTDFTLTISSLQPEDFATYYCQQKAFEPFTFGQGTKVEIKR
notes: Vk dAb
B21: DOM-40 (other)
VH: EVQLLESGGGLVQPGGSLRLSCAASGFTFKAYDMGWVRQAPGKGLEWVSQIGRDGSFTYYADSVKGRFTISRDNSKNTLYLQMNSLRAEDTAVYYCAKPRRYAIFTFDRGQGTLVTVSS
notes: VH dAb
B22: DOM-46 (other)
VH: EVQLLESGGGLVQPGGSLRLSCAASGFTFELYAMAWVRQAPGKGLEWVSGIGAVGETTYYADSVKGRFTISRDNSKNTLYLQMNSLRAEDTAVYYCAKEANNLSDNLVFDYWGQGTLVTVSS
notes: VH dAb
B23: DOM-44 (other)
VH: EVQLLESGGGLVQPGGSLRLSCAASGFTFTSYEMGWVRQAPGKGLEWVSSIEPTGITTYYADSVKGRFTISRDNSKNTLYLQMNSLRAEDTAVYYCAKPHFTELGFDYWGQGTLVTVSS
notes: VH dAb
B24: DOM.203 (other)
VH: EVQLLESGGGLVQPGGSLRLSCAASGFTFSNYTMGWVRQAPGKGLEWVSSIRPDGKITYYADSVKGRFTISRDNSKNTLYLQMNSLRAEDTAVYYCAEVYSSCAMCTPLLFDYWGQGTLVTVSS
notes: VH dAb
B25: DOM-13 (other)
VH: EVQLLESGGGLVQPGGSLRLSCAASGFTFSYYSMYWVRQAPGKGLEWVSSISPFGWGTYYADSVKGRFTISRDNSKDTLYLQMNSLRAEDTAVYYCAKYGETSGPISENFDYWGQGTLVTVSS
notes: VH dAb
B26: DOM-72 (other)
VH: EVQLLESGGGLVQPGGSLRLSCAASGFTFEAYPMSWVRQAPGKGLEWVSSISPLGLWTYYADSVKGRFTISRDNSKNTLYLQMNSLRAEDTAVYYCAKLSAGAETHVYRLFDYWGQGTLVTVSS
notes: VH dAb
B27: DOM-70 (other)
VH: EVQLLESGGGLVQPGGSLRLSCAASGFTFENYAMSWVRQAPGKGLEWVSTIAPLGVPTYYADSVKGRFTISRDNSKNTLYLQMNSLRAEDTAVYYCAKKKVGAWLQSRSFDYWGQGTLVTVSS
notes: VH dAb
B28: DOM-71 (other)
VH: EVQLLESGGGLVQPGGSLRLSCAASGFTFEGYPMSWVRQAPGKGLEWVSTISPLGPDTYYADSVKGRFTISRDNSKNTLYLQMNSLRAEDTAVYYCAKLLMGEYLNSRTFDYWGQGTLVTVSS
notes: VH dAb
B29: DOM-17 (other)
VH: EVQLLESGGGLVQPGGSLRLSCAASGFTFEDYGMGWARQAPGKGLEWVSSIGPLGLWTYYADSAKGRFTISRDNSKNTLYLQMNSLRAEDTAVYYCAKSPLEGLITNFDYWGQGTLVTVSS
notes: VH dAb
B30: DOM.202 (other)
VH: EVQLLESGGGLVQPGGSLRLSCTASGFTFSHYEMGWVRQAPGKGLEWVSSIEPFGGGTYYADSVKGRFTISRDNSKNTLYLQMNSLRAEDTAVYYCAKVYPQGSFDYWGQGTLVTVSS
notes: VH dAb
B31: DOM.209 (other)
VH: EVQLLESGGGLVQPGGSLRLSCAASGFTFADYEMWWVRQAPGKGLEWVSAISRQGFATYYADSVKGRFTISRDNSKNTLYLQMNSLRAEDTAVYYCAKDLERDDFDYWGQGTLVTVSS
notes: VH dAb
B32: DOM-32 (other)
VH: EVQLLESGGGLVQPGGSLRLSCAASGFTFEVYQMGWVRQAPGKGLEWVSFIVPGGDLTYYADSVKGRFTISRDNSKNTLYLQMNSLRAEDTAVYYCAETWPEFDYWGQGTLVTVSS
notes: VH dAb

molecular target: T1, Recombinant human CD40L; experiment: CD40L/CD40-Fc receptor binding assay;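 also: plate assay with coated human CD40-Fc, bound ligand detected via HRP anti-biotin antibody and TMB, OD at 450 nm, lower signal indicates stronger inhibition by dAb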

Binding result, binds:
B1, B2, B3, B4, B5, B6, B7, B8, B9, B10, B11, B12, B13, B14, B15, B16, B17, B18, B19, B20, B21, B22, B23, B24, B25, B26, B27, B28, B29, B30, B31, B32
